Results reported in paper PMC10583557 (Molecular Biology and Evolution, 2023).

How the values were obtained:
C. apon LDH = biological target: T1, C. apon LDH (Cyanobacterium aponinum, UniProt K9Z684); assay: X-ray crystal structure of complex; assay type: binding; details: 2 mM each
T1 sequence (K9Z684 1-331): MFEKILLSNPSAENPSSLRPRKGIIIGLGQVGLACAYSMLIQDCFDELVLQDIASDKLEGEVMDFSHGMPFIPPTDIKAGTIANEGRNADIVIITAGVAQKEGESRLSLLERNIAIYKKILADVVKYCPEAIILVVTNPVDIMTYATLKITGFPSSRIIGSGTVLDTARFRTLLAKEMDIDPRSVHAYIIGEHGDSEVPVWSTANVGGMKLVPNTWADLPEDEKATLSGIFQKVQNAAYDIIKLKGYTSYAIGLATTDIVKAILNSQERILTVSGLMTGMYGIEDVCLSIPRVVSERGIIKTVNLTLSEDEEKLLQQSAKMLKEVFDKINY

[1] = biological target: Y190W C. apon LDH (Cyanobacterium aponinum); assay: AUC
SEC-MALS = biological target: the molecule itself; assay: SEC-MALS

## NC(=O)C1=CN([C@@H]2O[C@H](COP(=O)(O)OP(=O)(O)OC[C@H]3O[C@@H](n4cnc5c(N)ncnc54)[C@H](O)[C@@H]3O)[C@@H](O)[C@H]2O)C=CC1 [NADH]
C. apon LDH; cofactor site, with oxamate and FBP
  X-ray crystal structure of complex: active sites of each monomer occupied with a NADH and an oxamate molecule

## Y190W C. apon LDH (enzyme)
[1]
  stoichiometry N: 4

## NC(=O)C(=O)O [oxamate]
C. apon LDH; active site, substrate analogue, with NADH and FBP
  X-ray crystal structure of complex: active sites of each monomer occupied with a NADH and an oxamate molecule

B1: ΔN-ter C. apon LDH (N-terminal sequence … deleted) (domain or fragment, Cyanobacterium aponinum, UniProt K9Z684 21-331, looked up)
chain: RKGIIIGLGQVGLACAYSMLIQDCFDELVLQDIASDKLEGEVMDFSHGMPFIPPTDIKAGTIANEGRNADIVIITAGVAQKEGESRLSLLERNIAIYKKILADVVKYCPEAIILVVTNPVDIMTYATLKITGFPSSRIIGSGTVLDTARFRTLLAKEMDIDPRSVHAYIIGEHGDSEVPVWSTANVGGMKLVPNTWADLPEDEKATLSGIFQKVQNAAYDIIKLKGYTSYAIGLATTDIVKAILNSQERILTVSGLMTGMYGIEDVCLSIPRVVSERGIIKTVNLTLSEDEEKLLQQSAKMLKEVFDKINY
SEC-MALS
  stoichiometry N: 2

B2: Cyanobacterium aponinum lactate dehydrogenase, wild type (enzyme)
chain: T1 sequence (K9Z684 1-331)
SEC-MALS
  stoichiometry N: 4
